Reference: US20230295635, “DNA APTAMERS FOR EOSINOPHIL PEROXIDASE DETECTION” (McMaster University, published 2023)

B1: EAP2-09 (ssDNA)
DNA: ATGCCATCCTACCAACACGACCGGTGTAGAGGGGGGTATACGGAATGGGGGTTGTGGAGCTCTGAACTGG
B2: EAP2-40 (ssDNA)
DNA: ATGCCATCCTACCAACCAGGGGGCGCGGGAGGGGGCCTGACGTCGAGGGGGTTGGGGAGCTCTGAACTGG
B3: EAP1-05 (ssDNA)
DNA: ATGCCATCCTACCAACCAGGGGGACAGTGCAAAGGGGTAGGGAGGGGGCTAGGGGGGAGCTCTGAACTGG
B4: EAP1-20 (ssDNA)
DNA: ATGCCATCCTACCAACAGCAGCGGGCGGGGGCCAGTGGGGGATGTAGCCGGGGGTGGAGCTCTGAACTGG
B5: EAP2-10 (ssDNA)
DNA: ATGCCATCCTACCAACAGGGAGGGGGCGGTTAGGGAATGGTGGTCCGGGCGGGGTAGAGCTCTGAACTGG
B6: EAP2-01 (ssDNA)
DNA: ATGCCATCCTACCAACCGCGGGAGGAGACTGGTGTAGGGGGCATGGGATGGCCTGGGAGCTCTGAACTGG
B7: EAP1-05T3BT (ssDNA)
DNA: TTTTTTTTTTATGCCATCCTACCAACCAGGGGGACAGTGCAAAGGGAGCTCTGAACTCG
B8: EAP1-08 (ssDNA)
DNA: ATGCCATCCTACCAACCAGTTGCCGGTGGGGTGACCCGGTGGGGGAGGGTGTGGGGGAGCTCTGAACTGG
B9: EAP1-01 (ssDNA)
DNA: ATGCCATCCTACCAACCACGGGGATCGGGTGGGGGCTAGGCGGCGTGTGCACGGGGGAGCTCTGAACTGG
B10: EAP1-15 (ssDNA)
DNA: ATGCCATCCTACCAACCGGGGGAGCAAGGTGTAGGGGTAGGGGGCCATGCGAGGGGGAGCTCTGAACTGG
B11: EAP2-18 (ssDNA)
DNA: ATGCCATCCTACCAACATGGGGATATCCGGCGGGGGCATCAGGGGGGAGTGCGGGTGAGCTCTGAACTGG

What was measured:
[1] = molecular target: T1, Eosinophil peroxidase (EPX) (UniProt P11678;P11678 P11678:140-250,P11678:251-715); test: EMSA; value only in figure; weaker than EAP1-05; 1x SB pH 9; settings: tags: Cedarlane #342-60-0.1; untagged commercial protein; label: fluorescent (FAM)
T1 sequence (P11678 140-250, chain 1 of 2): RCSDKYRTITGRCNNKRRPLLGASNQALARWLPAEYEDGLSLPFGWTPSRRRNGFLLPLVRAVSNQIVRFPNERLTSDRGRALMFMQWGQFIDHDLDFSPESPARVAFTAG
T1 sequence (P11678 251-715, chain 2 of 2): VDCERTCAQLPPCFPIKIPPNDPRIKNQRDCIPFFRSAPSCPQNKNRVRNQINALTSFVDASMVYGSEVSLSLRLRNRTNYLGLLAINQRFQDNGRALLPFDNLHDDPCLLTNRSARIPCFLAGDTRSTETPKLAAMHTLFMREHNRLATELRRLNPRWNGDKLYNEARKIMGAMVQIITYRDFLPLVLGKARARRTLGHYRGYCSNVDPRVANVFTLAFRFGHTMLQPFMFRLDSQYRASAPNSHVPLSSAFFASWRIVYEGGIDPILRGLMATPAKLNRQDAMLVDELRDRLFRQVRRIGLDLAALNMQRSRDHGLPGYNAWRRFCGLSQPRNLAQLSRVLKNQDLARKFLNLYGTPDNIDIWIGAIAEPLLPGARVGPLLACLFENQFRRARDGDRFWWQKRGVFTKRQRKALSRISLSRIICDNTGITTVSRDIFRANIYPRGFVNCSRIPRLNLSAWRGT

[2] = molecular target: T1, Eosinophil peroxidase (EPX); test: EMSA; 3 nM aptamer, 5 nM EPX; small positive impact of middle deletion; settings: tags: Cedarlane #342-60-0.1; untagged commercial protein; label: 5'-FAM
Description: Next, EAP1-05 was subjected to truncation and deletion experiments to shorten the aptamer and improve its binding ability. The aptamer was truncated by removing various DNA segments (FIG. 2A), and the fraction of aptamer bound to EPX was assessed by EMSA using 3 nM of aptamer and a single EPX concentration of 5 nM and calculating the decrease in free aptamer fluorescence in EMSA gels.

[3] = molecular target: T1, Eosinophil peroxidase (EPX); test: FP; PBS pH 7.4, room temperature; settings: tags: Cedarlane #342-60-0.1, untagged commercial protein, label: 5'-FAM
[4] = molecular target: T1, Eosinophil peroxidase (EPX); test: FP; 0.5x SB, room temperature; settings: tags: Cedarlane #342-60-0.1; untagged commercial protein; label: 5'-FAM; 3' stem loop
[5] = molecular target: T1, Eosinophil peroxidase (EPX); test: EMSA; 1x SB (50 mM Tris, 1 M NaCl, 5 mM MgCl2, 2 mM KCl, pH 9), poly(dI-dC); from loss of free aptamer band; settings: tags: Cedarlane #342-60-0.1; untagged commercial protein; label: 5'-FAM; 3' stem loop
[6] = molecular target: T1, Eosinophil peroxidase (EPX); test: pulldown; HB (50 mM HEPES, 300 mM NaCl, 15 mM MgCl2, pH 7.5), TMB signal; LoD 1 nM in buffer, 1.25 nM in sputum; settings: tags: Cedarlane #342-60-0.1; untagged commercial protein; label: 5'-biotin
Description: (§1) EPX pulldown assay: Biotinylated EAP1-05T3 was immobilized on streptavidin-coated agarose beads as follows: 200 µL of streptavidin-coated agarose slurry was transferred into a 1.5 mL Eppendorf tube and washed with 500 µL of 1x HB (50 mM HEPES, 300 mM NaCl, 15 mM MgCl2, 0.01% Tween20, pH 7.5). 1 nmole of biotinylated EAP1-05T3 was added to this slurry and rotated gently for 1 h to bind the aptamers with the beads. The beads were washed 5x with 500 µL of 1x HB each time and finally suspended in 1000 µL of 1x HB and stored at 4° C. until use. 50 µL of this bead slurry was used for each pull-down experiment.
Sensitivity test in buffer: EPX stocks of different concentrations (10.0, 5.0, 2.5, 1.25, 0.625, 0.312, 0.156, 0.078, 0.039 and 0.019 µM) were made in 1x HB. Similar to specificity test, 50 µL of aptamer conjugated beads slurry was transferred in each fresh Eppendorf tube (3 tubes for each concentration for triplicate experiments). 1.0 µL of each protein was added to their respected tube and incubated at room temperature for 30 minutes with occasional pipetting for homogeneous binding. Only buffer was added in the control experiment tube that was labelled as buffer. […] This yellow solution was immediately transferred into 96 well plate and the OD was measured at 450 nm using a Tecan plate reader. […]

Lactoperoxidase (LPO) = Lactoperoxidase (LPO) (UniProt P80025 P80025:101-712); test: pulldown; HB, 1 uM protein; no TMB signal
Myeloperoxidase (MPO) = Myeloperoxidase (MPO) (UniProt P05164;P05164 P05164:165-273,P05164:279-745); test: pulldown; HB, 1 uM protein; no TMB signal; settings: tags: Cedarlane #426-10-0.1; untagged commercial protein; chain copies: 2; label: 5'-biotin
Sequence of Myeloperoxidase (MPO) (P05164 165-273, chain 1 of 2): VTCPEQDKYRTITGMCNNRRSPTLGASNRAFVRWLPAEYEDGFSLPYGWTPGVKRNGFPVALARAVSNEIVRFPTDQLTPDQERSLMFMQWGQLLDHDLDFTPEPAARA
Sequence of Myeloperoxidase (MPO) (P05164 279-745, chain 2 of 2): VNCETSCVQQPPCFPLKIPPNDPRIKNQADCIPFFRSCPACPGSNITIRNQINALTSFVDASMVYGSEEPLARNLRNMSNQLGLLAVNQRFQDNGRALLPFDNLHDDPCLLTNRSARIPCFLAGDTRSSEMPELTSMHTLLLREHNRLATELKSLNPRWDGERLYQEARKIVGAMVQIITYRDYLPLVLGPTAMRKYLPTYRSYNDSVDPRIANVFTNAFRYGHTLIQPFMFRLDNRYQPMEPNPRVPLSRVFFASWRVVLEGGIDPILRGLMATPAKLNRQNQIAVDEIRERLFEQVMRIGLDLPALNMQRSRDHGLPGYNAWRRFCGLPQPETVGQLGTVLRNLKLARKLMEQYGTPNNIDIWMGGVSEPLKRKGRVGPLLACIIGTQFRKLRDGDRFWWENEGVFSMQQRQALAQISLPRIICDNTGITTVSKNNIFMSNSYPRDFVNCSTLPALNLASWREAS

[7] = molecular target: Bovine serum albumin (BSA) (Bos taurus, UniProt P02769 P02769:25-607); test: pulldown; HB; no TMB signal (BSA has no peroxidase activity); settings: label: 5'-biotin
Sequence of Bovine serum albumin (BSA) (P02769 25-607, one chain of several): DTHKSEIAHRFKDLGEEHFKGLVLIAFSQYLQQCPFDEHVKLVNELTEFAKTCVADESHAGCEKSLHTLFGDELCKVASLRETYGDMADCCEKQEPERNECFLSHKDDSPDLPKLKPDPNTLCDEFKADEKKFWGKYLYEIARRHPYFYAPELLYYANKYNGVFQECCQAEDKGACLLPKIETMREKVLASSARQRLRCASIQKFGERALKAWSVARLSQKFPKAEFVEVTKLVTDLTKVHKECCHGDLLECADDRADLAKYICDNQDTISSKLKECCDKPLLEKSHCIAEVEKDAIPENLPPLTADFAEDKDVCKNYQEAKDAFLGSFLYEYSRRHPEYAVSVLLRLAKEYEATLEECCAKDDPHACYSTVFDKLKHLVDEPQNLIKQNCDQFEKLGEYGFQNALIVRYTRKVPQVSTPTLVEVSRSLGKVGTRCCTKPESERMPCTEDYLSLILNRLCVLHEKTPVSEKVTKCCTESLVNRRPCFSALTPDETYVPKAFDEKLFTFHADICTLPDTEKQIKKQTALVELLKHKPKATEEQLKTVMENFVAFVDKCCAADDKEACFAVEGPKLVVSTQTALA
Description: as §1
Specificity test: 50 µL of aptamer-conjugated beads from above were aliquoted in each tube and labelled for each experiment: Buffer, EPX, MPO, LPO, TPO and BSA respectively. 1 µM stock of each of protein was made in 1x HB. Next, 1.0 µL of each protein was added to their respected tube and incubated at room temperature for 30 minutes with occasional pipetting for homogeneous binding. Only buffer was added in the control experiment tube that was labelled as buffer. Then the beads were sedimented by brief centrifugation using a benchtop centrifuge and washed 3× using 300 µL 1x HB. Next, the beads were resuspended in 25 µL HB. […] This yellow solution was immediately transferred into 96 well plate and the OD was measured at 450 nm using Tecan plate reader. […]

Binder | binding result [1] | other results
B1 | binds | 
B2 | binds | 
ATGCCATCCTACCAATAGGGAGGGGGCTAGGGGGGAGCTCTGAACTCG (ssDNA) [EAP1-05T2] |  | binding result [2]: binds
ATGCCATCCTACCAACCAGGGGGACAGTGCAAAGGGAGCTCTGAACTCG (ssDNA) [EAP1-05T3] |  | Kd [3]: 4.8 nM
B3 |  | Kd ([3]; 3' stem loop): 4.3 nM; Kd [4]: 36.6 nM; Kd [5]: 9.2 nM
B4 | binds | 
B5 | binds | 
B6 | binds | 
B7 |  | binding result [6]: binds; binding result (Lactoperoxidase (LPO)): no binding; binding result (Myeloperoxidase (MPO)): no binding; binding result [7]: no binding
B8 | binds | 
B9 | binds | 
B10 | binds | 
B11 | binds | 
